Laboratory results taken from patent EP2966448B1, “METHOD FOR THE PREDICTION OR PROGNOSIS OF THE RESPONSE OF A HUMAN SUBJECT SUFFERING FROM CANCER TO TREATMENT WITH AN ANTAGONIST OF THE NK1 RECEPTOR” (priority 2013, dated 2014).

Target: NK1 receptor (human) (UniProt P25103)
Assay: cell-based or functional assay

NK1 receptor (human), sequence (P25103 87-407): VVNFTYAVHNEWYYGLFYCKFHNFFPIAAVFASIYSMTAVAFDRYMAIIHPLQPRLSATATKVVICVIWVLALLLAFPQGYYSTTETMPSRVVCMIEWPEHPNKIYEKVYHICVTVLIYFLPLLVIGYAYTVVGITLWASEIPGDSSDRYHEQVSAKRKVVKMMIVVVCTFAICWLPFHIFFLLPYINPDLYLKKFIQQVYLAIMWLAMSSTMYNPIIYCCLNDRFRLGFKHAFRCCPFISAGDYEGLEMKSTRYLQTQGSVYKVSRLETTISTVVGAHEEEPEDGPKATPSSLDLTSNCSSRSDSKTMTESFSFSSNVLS

antibody against NK1 receptor (Sigma-Aldrich, catalogue number S8305)
Percentage of inhibition of cell cultures; Ovarian carcinoma (Adenocarcinoma); cases without presence of ERK: 24%
Percentage of inhibition of cell cultures; Ovarian carcinoma; Group 1 (expression in less than 20% of the cells): 24%
Percentage of inhibition of cell cultures; Ovarian carcinoma; Group 2 (expression in 20-80% of the cells): 55%
Percentage of inhibition of cell cultures; Ovarian carcinoma; Group 3 (expression in more than 80% of the cells): 97%
Percentage of inhibition of cell cultures; Ovarian carcinoma; Intensity grade 1: 23%
Percentage of inhibition of cell cultures; Ovarian carcinoma; Intensity grade 2: 54%
Percentage of inhibition of cell cultures; Ovarian carcinoma; Intensity grade 3: 96%
Percentage of inhibition of cell cultures; Pancreatic carcinoma (Adenocarcinoma); cases with presence of AKT: 95%
Percentage of inhibition of cell cultures; Pancreatic carcinoma (Adenocarcinoma); cases with presence of ERK: 94%
Percentage of inhibition of cell cultures; Pancreatic carcinoma (Adenocarcinoma); cases without presence of AKT: 94%
Percentage of inhibition of cell cultures; Pancreatic carcinoma (Adenocarcinoma); cases without presence of ERK: 94%
Percentage of inhibition of cell cultures; Pancreatic carcinoma; Group 1 (expression in less than 20% of the cells): 23%
Percentage of inhibition of cell cultures; Pancreatic carcinoma; Group 2 (expression in 20-80% of the cells): 53%
Percentage of inhibition of cell cultures; Pancreatic carcinoma; Group 3 (expression in more than 80% of the cells): 96%
Percentage of inhibition of cell cultures; Pancreatic carcinoma; Intensity grade 1: 22%
Percentage of inhibition of cell cultures; Pancreatic carcinoma; Intensity grade 2: 54%
Percentage of inhibition of cell cultures; Pancreatic carcinoma; Intensity grade 3: 93%
Percentage of inhibition of cell cultures; Prostate carcinoma; Group 1 (expression in less than 20% of the cells): 23%
Percentage of inhibition of cell cultures; Prostate carcinoma; Group 2 (expression in 20-80% of the cells): 57%
Percentage of inhibition of cell cultures; Prostate carcinoma; Group 3 (expression in more than 80% of the cells): 96%
Percentage of inhibition of cell cultures; Prostate carcinoma; Intensity grade 1: 24%
Percentage of inhibition of cell cultures; Prostate carcinoma; Intensity grade 2: 56%
Percentage of inhibition of cell cultures; Prostate carcinoma; Intensity grade 3: 93%
Percentage of inhibition of cell cultures; Prostate carcinoma; cases with presence of AKT: 90%
Percentage of inhibition of cell cultures; Prostate carcinoma; cases with presence of ERK: 90%
Percentage of inhibition of cell cultures; Prostate carcinoma; cases without presence of AKT: 26%
Percentage of inhibition of cell cultures; Prostate carcinoma; cases without presence of ERK: 27%
Percentage of inhibition of cell cultures; Renal cell carcinoma (clear cell renal cell carcinoma); cases with presence of AKT: 94%
Percentage of inhibition of cell cultures; Renal cell carcinoma (clear cell renal cell carcinoma); cases with presence of ERK: 95%
Percentage of inhibition of cell cultures; Renal cell carcinoma (clear cell renal cell carcinoma); cases without presence of AKT: 34%
Percentage of inhibition of cell cultures; Renal cell carcinoma (clear cell renal cell carcinoma); cases without presence of ERK: 32%
Percentage of inhibition of cell cultures; Renal cell carcinoma; Group 1 (expression in less than 20% of the cells): 22%
Percentage of inhibition of cell cultures; Renal cell carcinoma; Group 2 (expression in 20-80% of the cells): 52%
Percentage of inhibition of cell cultures; Renal cell carcinoma; Group 3 (expression in more than 80% of the cells): 94%
Percentage of inhibition of cell cultures; Renal cell carcinoma; Intensity grade 1: 23%
Percentage of inhibition of cell cultures; Renal cell carcinoma; Intensity grade 2: 53%
Percentage of inhibition of cell cultures; Renal cell carcinoma; Intensity grade 3: 97%
Percentage of inhibition of cell cultures; Thyroid carcinoma (follicular carcinoma); cases with presence of AKT: 96%
Percentage of inhibition of cell cultures; Thyroid carcinoma (follicular carcinoma); cases with presence of ERK: 96%
Percentage of inhibition of cell cultures; Thyroid carcinoma (follicular carcinoma); cases without presence of AKT: 24%
Percentage of inhibition of cell cultures; Thyroid carcinoma (follicular carcinoma); cases without presence of ERK: 26%
Percentage of inhibition of cell cultures; Thyroid carcinoma (folliculary type); Group 1 (expression in less than 20% of the cells): 25%
Percentage of inhibition of cell cultures; Thyroid carcinoma (folliculary type); Group 2 (expression in 20-80% of the cells): 54%
Percentage of inhibition of cell cultures; Thyroid carcinoma (folliculary type); Group 3 (expression in more than 80% of the cells): 96%
Percentage of inhibition of cell cultures; Thyroid carcinoma (folliculary type); Intensity grade 1: 26%
Percentage of inhibition of cell cultures; Thyroid carcinoma (folliculary type); Intensity grade 2: 53%
Percentage of inhibition of cell cultures; Thyroid carcinoma (folliculary type); Intensity grade 3: 95%
Percentage of inhibition of cell cultures; Thyroid carcinoma (papillary carcinoma); cases with presence of AKT: 89%
Percentage of inhibition of cell cultures; Thyroid carcinoma (papillary carcinoma); cases with presence of ERK: 89%
Percentage of inhibition of cell cultures; Thyroid carcinoma (papillary carcinoma); cases without presence of AKT: 24%
Percentage of inhibition of cell cultures; Thyroid carcinoma (papillary carcinoma); cases without presence of ERK: 27%
Percentage of inhibition of cell cultures; Thyroid carcinoma (papillary type); Group 1 (expression in less than 20% of the cells): 22%
Percentage of inhibition of cell cultures; Thyroid carcinoma (papillary type); Group 2 (expression in 20-80% of the cells): 53%
Percentage of inhibition of cell cultures; Thyroid carcinoma (papillary type); Group 3 (expression in more than 80% of the cells): 94%
Percentage of inhibition of cell cultures; Thyroid carcinoma (papillary type); Intensity grade 1: 24%
Percentage of inhibition of cell cultures; Thyroid carcinoma (papillary type); Intensity grade 2: 56%
Percentage of inhibition of cell cultures; Thyroid carcinoma (papillary type); Intensity grade 3: 94%
Percentage of inhibition of cell cultures; Undifferentiated Pleomorphic Sarcoma (malignant fibrous histiocytoma grade 3); cases with presence of AKT: 90%
Percentage of inhibition of cell cultures; Undifferentiated Pleomorphic Sarcoma (malignant fibrous histiocytoma grade 3); cases with presence of ERK: 90%
Percentage of inhibition of cell cultures; Undifferentiated Pleomorphic Sarcoma (malignant fibrous histiocytoma grade 3); cases without presence of AKT: 25%
Percentage of inhibition of cell cultures; Undifferentiated Pleomorphic Sarcoma (malignant fibrous histiocytoma grade 3); cases without presence of ERK: 27%
Percentage of inhibition of cell cultures; Urinary bladder carcinoma (transitional cell carcinoma); cases with presence of AKT: 91%
Percentage of inhibition of cell cultures; Urinary bladder carcinoma (transitional cell carcinoma); cases with presence of ERK: 88%
Percentage of inhibition of cell cultures; Urinary bladder carcinoma (transitional cell carcinoma); cases without presence of AKT: 25%
Percentage of inhibition of cell cultures; Urinary bladder carcinoma (transitional cell carcinoma); cases without presence of ERK: 28%
Percentage of inhibition of cell cultures; Urinary bladder carcinoma; Group 1 (expression in less than 20% of the cells): 23%
Percentage of inhibition of cell cultures; Urinary bladder carcinoma; Group 2 (expression in 20-80% of the cells): 54%
Percentage of inhibition of cell cultures; Urinary bladder carcinoma; Group 3 (expression in more than 80% of the cells): 95%
Percentage of inhibition of cell cultures; Urinary bladder carcinoma; Intensity grade 1: 25%
Percentage of inhibition of cell cultures; Urinary bladder carcinoma; Intensity grade 2: 55%
Percentage of inhibition of cell cultures; Urinary bladder carcinoma; Intensity grade 3: 96%
